Test results: the supplement of paper PMC9170038

Experiments:
MS2 coat protein [1] = assay: apparent KD of MS2 coat protein, switch ON state; designed switch direction (-1 OFF switch, 1 ON switch): 1; higher = weaker reporter binding; settings: FMN input: 0 or 200 uM; Eterna round: R93 (includes R88 designs)
In short: (§1)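 On-chip transcription from Illumina sequencing clusters produced the designed RNA switches. These were titrated with SNAP-549-labelled MS2 coat protein (twofold steps, 0.7 or 1.5 nM to 3 µM) in 100 mM Tris-HCl pH 7.5, 80 mM KCl, 4 mM MgCl2, with or without constant ligand. The apparent KD given is the per-design median of normalised cluster binding-curve fits.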

MS2 coat protein [2] = assay: apparent KD of MS2 coat protein, switch OFF state (with FMN for OFF switches, without FMN for ON switches); designed switch direction (-1 OFF switch, 1 ON switch): 1; higher = weaker reporter binding; settings: FMN input: 0 or 200 uM; Eterna round: R93 (includes R88 designs)
In short: as §1

Sequence	apparent KD of MS2 coat protein (MS2 coat protein [1])	apparent KD of MS2 coat protein (MS2 coat protein [2])
AAUAAUUAUAGCAAGGAUAUCGGUAUAAAGACAUGAGGAUCACCCAUGUAAUAUGGUUAAAUUUACGAGAAGGUGCAGGGUGAAA [JR_SS002_Sub009]	0.17 µM	0.142 µM
AGAAAUAAAAGAGAGGAUAUUCAAAAGAAAACAUGAGGAUCACCCAUGUAAAAGAAAAUAAAUGGGAAGAAGGCUCAAAAUAAAG [Modifying JL's highscorer - Moving the G segment - Variant 2]	0.0248 µM	0.0262 µM
GAGGACAUAGUACAGGAUAUAUGAAUAGUUACAUGAGGAUCACCCAUGUGCAUUAAUAUGCGAACAUAGAAGGGUGGUAGUUAUC [Mat - Same state - Malcolm Mod - D128]	0.119 µM	0.0644 µM
GAAAAACAUGAGGAUCACCCAUGUGAAAAUAUGGGAGGAUAUACAAAGACGAAAGUCAAAGUAGAAGGCCUAAAAG [Mat - Same State 1 - Eli mod - D3]	0.0235 µM	0.139 µM
GAAAAACAUGAGGAUCACCCAUGUAGAAAUAUGGGAGGAUAUACAAAGACGAAAGUCAAAGUAGAAGGCUCAAAAG [Starry Same State 1.2 (mat747 round 1 mod)]	0.0283 µM	0.164 µM
UGCAGGAAGAGAGAGGAUAUCCAAAGGAAAACAUGAGGAUCACCCAUGUAAAAGGUAGGAAAUUGGGAGAAGGCUCAAGAGAGAG [salish99-ss2-098]	0.0331 µM	0.0283 µM
AAAUAAAUGACUAAGGAUAUAUCAGAAAAAACAUGAGGAUCACCCAUGUAAUAAUAAAAAGGGUGAUAGAAGGUAGUCAACAAAC [74%, More Paria 4]	0.0256 µM	0.118 µM
AUAUAUAUAAGGUAGGAUAUCCAAAAGUAAACAUGAGGAUCACCCAUGUAAAGAAAGAAACAAUGGGAGAAGGACCAUAUAUAUA [77%, More Tesla, 3]	0.0095 µM	0.024 µM
AAAAAACAUGAGGAUCACCCAUGUCCUCGGACGUGAGGAUAUGUACAGACUUCGGUCUGUACAGAAGGCAUGAAAA [SS1 - 1059]	0.432 µM	0.201 µM
AAUAAAAAUAGUUAGGAUAUGAGAACUAGGACAUGAGGAUCACCCAUGUAACUAGAACAAGUAAAUCAGAAGGGACAGGGUGAAA [JR_SS002_Sub203]	0.0419 µM	0.019 µM
UGGAGACAUGAGGAUCACCCAUGUGAGAAGAGGCGAGGAUAUCGAAAGAAAGAAGAGAAACGAGAAGGCGCGAGCC [salish99-SS1-048]	0.0362 µM	0.0499 µM
AUAAGAAAAACACAGGAUAUCCAAAAGAAAACAUGAGGAUCACCCAUGUAAAGAAAAUAAAAAUGGGAGAAGGGUGAAAAUAAUA [Mat - Same State 2 - JL mod - D32]	0.0281 µM	0.0622 µM
AAUAUACAUGAGGAUCACCCAUGUUAGGUGGGACUAGGAUAUCAAAAUAAAUAAUGAACAUGAGAAGGAGUAUCAA [JR_SS001_Sub402]	0.13 µM	0.19 µM
AAAUUACAUGAGGAUCACCCAUGUAACGACGUUACAGGAUAUGUGGGUGAAAAUAGCAUGACAGAAGGGUACCGUA [SameState1 Malc#38]	0.0788 µM	0.0284 µM
AGAAGACAUGAGGAUCACCCAUGUAGGAAUAUGGGAGGAUAUACAAAGACGAAAGUCAGAGUAGAAGGCCUAGGAA [salish99-SS1-090]	0.0185 µM	0.053 µM
GGAAAUAAAAGAGAGGAUAUCCAAAGGAAAACAUGAGGAUCACCCAUGUAAAAGGAAGGAAACUGGGAGAAGGCUCAAAAUAAGG [salish99-ss2-010]	0.0187 µM	0.0322 µM
CGGAGACAUGAGGAUCACCCAUGUGAGAAGAGGCGAGGAUAUCGAAAGAAAGAAGAGAAACGAGAAGGCGCGAGUU [salish99-SS1-070]	0.0215 µM	0.0345 µM
AAGAAACAUGAGGAUCACCCAUGUAAGAUAAACACAGGAUAUGCGAAAGAAACAAAAGAAGCAGAAGGGUGAAGAA [Mat - Same State 1 - Tesla mod - D146]	0.0171 µM	0.0294 µM
AUAAAACAUGAGGAUCACCCAUGUCCGACAAAUCAAGGAUAUGAGAGCAAAACCAGGCUGUUAGAAGGUGAAAGAA [Atlausa]	0.154 µM	0.154 µM
AAGAAAGAAACAUAGGAUAUCAAGGAUAUAACAUGAGGAUCACCCAUGUAAAUACGAAAGUAUAAUGAGAAGGAUGGAUGAUCUAC [Meechl MS2 SS2 3]	0.2 µM	0.0795 µM
AAAAACAUGGUGUAGGAUAUAUUAAUAGUCACAUGAGGAUCACCCAUGUUCAGAUAUCUGAACGAGUAGAAGGACGAUGAAAAAA [Mat - Same state - Malcolm Mod - D109]	0.454 µM	0.349 µM

Sequence	apparent KD of MS2 coat protein (MS2 coat protein [1])	apparent KD of MS2 coat protein (MS2 coat protein [2])
AUAAAACAUGAGGAUCACCCAUGUCAAGAGUAUUAAGGAUAUGAGCCAGGGAACUGGCGAUCAGAAGGUGAGACUC [Atxerexebe]	0.16 µM	0.0467 µM
AUGUAUAGCCUCGAGGAUAUCCUGUCAUGCACAUGAGGAUCACCCAUGUAAGAGAGAGUUUAAUGGGAGAAGGCGAGUUCUCGGU [JR_SS002_Sub1706]	0.0334 µM	0.0666 µM
GAAAAACAUGAGGAUCACCCAUGUAGAAACAUGGGAGGAUAUACAAAGACGAAAGUCAAAGUAGAAGGCCUAAAAG [Mat - Same State 1 - Mod - D159]	0.207 µM	0.119 µM
AACAAUCUAUCUGAGGAUAUGUGUCGAAAGACAUGAGGAUCACCCAUGUGAAAACAUGGAAAAACACAGAAGGCAGAUAGAUUGA [SS2: 1150]	0.147 µM	0.202 µM
AUAAAACAUGAGGAUCACCCAUGUAGAAAUAUGGGAGGAUAUACUAGAUCGAAAGAUCUAGUAGAAGGCCUCAAAG [JL Mod of Eli 2]	0.0588 µM	0.0589 µM
AAGAAACAUGAGGAUCACCCAUGUAGAAAUAUGGGAGGAUAUACAAGGACGGAAGUCAAGGUAGAAGGCCUAAGAA [Mat - Same State 1 - Meechl mod - D133]	0.0267 µM	0.112 µM
UGGAGACAUGAGGAUCACCCAUGUGAGAAGAGGCGAGGAUAUCGAAAGAAAGAAGAGAAACGAGAAGGCGCGAGGC [salish99-SS1-047]	0.0433 µM	0.0276 µM
AGAAAACAUGAGGAUCACCCAUGUAGGAAUAUGGGAGGAUAUACAAAGACGAAAGUCAGAGUAGAAGGCCUAAAAA [salish99-SS1-086]	0.0175 µM	0.0923 µM
AGAAAAGAAAGUAAGGAUAUGCAUAAUAAAACAUGAGGAUCACCCAUGUUAAAAAAAAGAUCAUGGUAGAAGGUACAAAAGAAAG [SS2 M 36]	0.017 µM	0.0123 µM
AAAAAAAAGGGUGAGGAUAUAGAAAAAAAAACAUGAGGAUCACCCAUGUGAAAAAAAAAAAAAAGCUAGAAGGCACAAAAAAAAAA [Same State 2]	0.0792 µM	0.159 µM
AGAAAUAAAAGACAGGAUAUCCAAAAGAAAACAUGAGGAUCACCCAUGUAAAGAAAAUAAAAAUGGGAGAAGGGUCAAAUAAAAA [Mat - Same State 2 - JL mod - D49]	0.0344 µM	0.0339 µM
AAGAAACAUGAGGAUCACCCAUGUAGAAAUAUGGGAGGAUAUACGAAGACGAAAGUCAAAGUAGAAGGCCUAAAGA [Mat - Same State 1 - Eli mod - D106]	0.0203 µM	0.0615 µM
GCAGGGCCGUACUAGGAUAUGGGUGUAAAGACAUGAGGAUCACCCAUGUGAUGGCAAAACAAAGCUCAGAAGGAGUCGCGGCCCA [Cemavebi]	0.0207 µM	0.129 µM
GAAAAACAUGAGGAUCACCCAUGUAGAAAUAUGGGAGGAUAUACGAAGACGAAAGUCGAAGUAGAAGGCCUAAAAG [Mat - Same State 1 - Eli mod - D24]	0.027 µM	0.0849 µM
AAAAGACAUGAGGAUCACCCAUGUGAAAACGUGCGAGGAUAUGUGUGGAAACCGUACUAUACAGAAGGCGCGUGUC [SS1 - 84]	0.0222 µM	0.0339 µM
GGGAGACAUGAGGAUCACCCAUGUGAGAAGAGGCGAGGAUAUCGAAAGAAAGAAGAGAAACGAGAAGGCGCGAGGC [salish99-SS1-063]	0.0375 µM	0.0536 µM
CUGAGGAAGAGAGAGGAUAUCCAAAGGAAAACAUGAGGAUCACCCAUGUAAAAGGUAGGAAAUUGGGAGAAGGCUCAAGAGAGAG [salish99-ss2-068]	0.0224 µM	0.0343 µM
AAUAAGACUAGCAAGGAUAUCGAAAACGAGACAUGAGGAUCACCCAUGUAACAAGUAAAAGUAAACGAGAAGGUGCAGGGUGAAA [JR_SS002_Sub301]	0.0569 µM	0.08 µM
UGCCAAUUGGCACAGGAUAUGAGCAUGCUCACAUGAGGAUCACCCAUGUGAUUACCAACGCAAUAUCAGAAGGGUGCCCUCGUCA [Relageor]	0.0321 µM	0.0504 µM
UAGGGAACAGGGUAGGAUAUGCAUGGUCGUACAUGAGGAUCACCCAUGUAGCCUAGAAAAUAAAUGCAGAAGGGCCAAAAGAAAA [Raritea]	0.0398 µM	0.0671 µM
GGAAAACAUGAGGAUCACCCAUGUGAAAACGUGGGAGGAUAUGCAUGGAAACCAUACUGUGCAGAAGGCCCAUGUC [EteRNA is fun!]	0.0172 µM	0.0594 µM
